Laboratory results: paper PMC5921579

Substrate: O=P(O)(O)O[C@@H]1[C@H](O)[C@H](O)[C@@H](OP(=O)(O)O)[C@H](OP(=O)(O)O)[C@H]1O
Test: ADP luciferase assay, nonlinear regression
Assay type: biochemical, Trypanosoma brucei
Conditions: 200 µM ATP, 2 mM MgCl2, 20 mM HEPES, 150 mM NaCl, pH 7.5, 37°C

B1: T. brucei IPMK (rIPMK, rTbIPMK) (Trypanosoma brucei brucei TREU927) (protein)
chain: MLNICQNLSSVAKPDLIVVSGHKCNIQRGPQTSIGTPTITKRVTAWEALIYLEMLLAEDEAFAILATFVPPLVALLPPENFASDNWVYVHDPASRPLLKSIFAQLKQMSADTHGYNEVMDTTRWEIILVDVTATFHKPCVLDIKLGYVRHSPHTLPDKVERIHKRQLRRSQPIRFCGAHHQFCRQNNDIGECFELEEFTKDMGYALETEESHRRALRSFFTTASLMTTSNTNETTIIDDRHAMARSRCCRQRVQKLVDFLKGHLGQMLLERIAFVSASLLIVYDATGCCGRNVTVSEGINSMNDMVNVYLIDFSRSGDRRLHFPEEVVGFVQGLEKIIFLLS
  Km: 61.41 (±15.37) µM
  Vmax: 617 µmol/min/mg
  kcat/Km: 167000 M⁻¹ s⁻¹
